Source: patent US20210340217A1, “NOVEL PEPTIDES AND COMBINATION OF PEPTIDES FOR USE IN IMMUNOTHERAPY AGAINST OVARIAN CANCER AND OTHER CANCERS” (Immatics Biotechnologies GmbH, priority 2017, published 2021)

Biological target: HLA-B*07:02 (Homo sapiens, UniProt P01889)
Assay: MHC binding assay (UV-ligand exchange, beta2m ELISA)
Conditions: peptide exchange yield
From the text: Candidate peptides for T cell based therapies according to the present invention were further tested for their MHC binding capacity (affinity). The individual peptide-MHC complexes were produced by UV-ligand exchange, where a UV-sensitive peptide is cleaved upon UV-irradiation, and exchanged with the peptide of interest as analyzed. Only peptide candidates that can effectively bind and stabilize the peptide-receptive MHC molecules prevent dissociation of the MHC complexes. To determine the yield of the exchange reaction, an ELISA was performed based on the detection of the light chain (β2m) of stabilized MHC complexes. The assay was performed as generally described in Rodenko et al. (Rodenko et al., 2006).
96 well MAXISorp plates (NUNC) were coated over night with 2 ug/ml streptavidin in PBS at room temperature, washed 4× and blocked for 1 h at 37° C. in 2% BSA containing blocking buffer. Refolded HLA-A*02:01/MLA-001 monomers served as standards, covering the range of 15-500 ng/ml. Peptide-MHC monomers of the UV-exchange reaction were diluted 100-fold in blocking buffer. Samples were incubated for 1 h at 37° C., washed four times, incubated with 2 ug/ml HRP conjugated anti-β2m for 1h at 37° C., washed again and detected with TMB solution that is stopped with […]. Absorption was measured at 450 nm. Candidate peptides that show a high exchange yield (preferably higher than 50%, most preferred higher than 75%) are generally preferred for a generation and production of antibodies or fragments thereof, and/or T cell receptors or fragments thereof, as they show sufficient avidity to the MHC molecules and prevent dissociation of the MHC complexes.

Row | Peptide exchange | Substance
1 | “+++” (>50 = +++) | 32 (SPNKGTLSV; listed as Homo sapiens) [compound 32]
2 | “+++” (>50 = +++) | 33 (SPTFHLTL; listed as Homo sapiens) [compound 33]
3 | “+++” (>50 = +++) | 34 (LPRGPLASLL; listed as Homo sapiens) [compound 34]
4 | “+++” (>50 = +++) | 35 (FPDNQRPAL; listed as Homo sapiens) [compound 35]
5 | “++” (>20% = ++) | 36 (APAAWLRSA; listed as Homo sapiens) [compound 36]
6 | “+++” (>50 = +++) | 37 (RPLFQKSSM; listed as Homo sapiens) [compound 37]
7 | “+++” (>50 = +++) | 38 (SPHPVTALLTL; listed as Homo sapiens) [compound 38]
8 | “+++” (>50 = +++) | 39 (RPAPFEVVF; listed as Homo sapiens) [compound 39]
9 | “+++” (>50 = +++) | 40 (KPGTSYRVTL; listed as Homo sapiens) [compound 40]
10 | “+++” (>50 = +++) | 41 (RVRSRISNL; listed as Homo sapiens) [compound 41]
11 | “+++” (>50 = +++) | 118 (SPASRSISL; listed as Homo sapiens) [compound 118]
12 | “+++” (>50 = +++) | 119 (APLPRPGAVL; listed as Homo sapiens) [compound 119]
13 | “++” (>20% = ++) | 120 (RPAMNYDKL; listed as Homo sapiens) [compound 120]
14 | “+++” (>50 = +++) | 121 (VPNQSSESL; listed as Homo sapiens) [compound 121]
15 | “++” (>20% = ++) | 122 (YPGFPQSQY; listed as Homo sapiens) [compound 122]
16 | “+++” (>50 = +++) | 123 (KPSESIYSAL; listed as Homo sapiens) [compound 123]
17 | “+++” (>50 = +++) | 124 (LPSDSHFKITF; listed as Homo sapiens) [compound 124]

Row | Peptide exchange | Substance
18 | “++” (>20% = ++) | 125 (VPVYILLDEM; listed as Homo sapiens) [compound 125]
19 | “++” (>20% = ++) | 126 (KPGPEDKL; listed as Homo sapiens) [compound 126]
20 | “+++” (>50 = +++) | 127 (APRAGSQVV; listed as Homo sapiens) [compound 127]
21 | “+++” (>50 = +++) | 128 (YPRTITPGM; listed as Homo sapiens) [compound 128]
22 | “+++” (>50 = +++) | 129 (APRPASSL; listed as Homo sapiens) [compound 129]
23 | “+++” (>50 = +++) | 130 (FPRLVGPDF; listed as Homo sapiens) [compound 130]
24 | “+++” (>50 = +++) | 131 (APTEDLKAL; listed as Homo sapiens) [compound 131]
25 | “++” (>20% = ++) | 132 (IPGPAQSTI; listed as Homo sapiens) [compound 132]
26 | “+++” (>50 = +++) | 133 (MPNLPSTTSL; listed as Homo sapiens) [compound 133]
27 | “+++” (>50 = +++) | 134 (RPIVPGPLL; listed as Homo sapiens) [compound 134]
28 | “+++” (>50 = +++) | 135 (RVRSTISSL; listed as Homo sapiens) [compound 135]
29 | “+++” (>50 = +++) | 136 (SPFSAEEANSL; listed as Homo sapiens) [compound 136]
30 | “+++” (>50 = +++) | 137 (SPGATSRGTL; listed as Homo sapiens) [compound 137]
31 | “+++” (>50 = +++) | 138 (SPMATTSTL; listed as Homo sapiens) [compound 138]
32 | “+++” (>50 = +++) | 139 (SPQSMSNTL; listed as Homo sapiens) [compound 139]
33 | “+++” (>50 = +++) | 140 (SPRTEASSAVL; listed as Homo sapiens) [compound 140]
